Test results taken from patent publication US20060141529.

What was measured:
[1] = system: Cortactin (endogenous, immunoprecipitated from PDGF-stimulated cells)
[2] = target: Shp1 (on Human ProtoArray microarray) (UniProt P29350)
[3] = target: CRK (positive control substrate printed on the Human ProtoArray microarray) (UniProt P46108)
Chain of CRK (positive control substrate printed on the Human ProtoArray microarray) (P46108 whole entry): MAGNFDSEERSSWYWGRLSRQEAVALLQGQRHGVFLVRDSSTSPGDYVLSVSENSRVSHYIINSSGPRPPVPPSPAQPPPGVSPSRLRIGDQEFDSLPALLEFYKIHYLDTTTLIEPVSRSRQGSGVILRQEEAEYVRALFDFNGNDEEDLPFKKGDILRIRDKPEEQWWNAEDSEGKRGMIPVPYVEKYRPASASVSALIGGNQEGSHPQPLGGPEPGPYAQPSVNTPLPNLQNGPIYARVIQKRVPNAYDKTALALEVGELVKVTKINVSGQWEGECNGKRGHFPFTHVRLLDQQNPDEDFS

Chain of Shp1 (on Human ProtoArray microarray) (P29350 whole entry): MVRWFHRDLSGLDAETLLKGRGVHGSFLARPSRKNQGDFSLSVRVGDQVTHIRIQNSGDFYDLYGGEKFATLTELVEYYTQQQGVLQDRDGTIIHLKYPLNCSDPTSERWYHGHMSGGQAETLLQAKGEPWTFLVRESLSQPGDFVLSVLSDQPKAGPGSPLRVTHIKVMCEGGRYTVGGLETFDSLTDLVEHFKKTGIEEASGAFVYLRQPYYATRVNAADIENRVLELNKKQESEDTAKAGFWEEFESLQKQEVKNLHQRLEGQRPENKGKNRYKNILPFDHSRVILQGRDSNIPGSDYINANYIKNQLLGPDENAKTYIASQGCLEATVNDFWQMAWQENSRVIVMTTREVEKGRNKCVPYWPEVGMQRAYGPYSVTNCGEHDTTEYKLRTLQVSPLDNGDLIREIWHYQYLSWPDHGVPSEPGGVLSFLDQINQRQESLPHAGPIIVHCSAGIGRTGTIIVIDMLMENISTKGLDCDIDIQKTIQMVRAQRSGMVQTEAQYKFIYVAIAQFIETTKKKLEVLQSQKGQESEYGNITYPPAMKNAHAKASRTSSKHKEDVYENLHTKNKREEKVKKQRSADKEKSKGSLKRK

Substance | PDGF-stimulated tyrosine phosphorylation of Cortactin (immunoprecipitation and anti-phosphotyrosine immunoblot) [1] | phosphorylation on Human ProtoArray microarray [2] | phosphorylation on Human ProtoArray microarray (radiolabeled ATP) [3]
ABL (endogenous, in wild-type cell line) | PDGF stimulates phosphorylation of Cortactin 3-fold in wild type cells but not in abl-/-, arg-/-, and abl-/-arg-/- | – | –
ARG (endogenous, in wild-type cell line) | PDGF stimulates phosphorylation of Cortactin 3-fold in wild type cells but not in abl-/-, arg-/-, and abl-/-arg-/- | – | –
ARG kinase (protein tyrosine kinase ARG used to probe the Human ProtoArray microarrays) | – | one of the proteins proven to be a substrate for ARG on a Human ProtoArray microarray, Shp1 | This kinase phosphorylated the control substrate CRK in every subarray
